Reference: PMC9270243

Tests used:
[1] = biological target: Csy complex (P. aeruginosa) (UniProt Q02ML9); experiment: MST
[2] = biological target: Cas2/3 (P. aeruginosa) (UniProt Q02ML8); experiment: SPR
[3] = biological target: AcrIF23 (P. aeruginosa); experiment: MST
[4] = biological target: AcrIF3 (P. aeruginosa); experiment: MST
[5] = biological target: T1, Csy complex (Cas8f, Cas5f, Cas7f, Cas6f, crRNA) (Pseudomonas aeruginosa, UniProt Q02ML9;Q02MM0;Q02MM1;Q02MM2 1-434;1-327;1-342;1-187); experiment: EMSA
T1 sequence 1: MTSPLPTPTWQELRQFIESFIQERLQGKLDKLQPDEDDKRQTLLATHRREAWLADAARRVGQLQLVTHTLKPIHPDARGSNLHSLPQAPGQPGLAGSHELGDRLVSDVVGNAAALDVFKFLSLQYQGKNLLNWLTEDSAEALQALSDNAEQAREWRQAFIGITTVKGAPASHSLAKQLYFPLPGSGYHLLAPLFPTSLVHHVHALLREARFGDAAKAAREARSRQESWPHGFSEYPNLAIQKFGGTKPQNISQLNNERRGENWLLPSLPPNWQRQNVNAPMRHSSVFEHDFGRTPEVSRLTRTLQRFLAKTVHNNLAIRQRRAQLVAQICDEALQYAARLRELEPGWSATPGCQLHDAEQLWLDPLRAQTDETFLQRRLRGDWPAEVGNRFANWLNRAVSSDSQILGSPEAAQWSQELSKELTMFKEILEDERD
T1 sequence 2: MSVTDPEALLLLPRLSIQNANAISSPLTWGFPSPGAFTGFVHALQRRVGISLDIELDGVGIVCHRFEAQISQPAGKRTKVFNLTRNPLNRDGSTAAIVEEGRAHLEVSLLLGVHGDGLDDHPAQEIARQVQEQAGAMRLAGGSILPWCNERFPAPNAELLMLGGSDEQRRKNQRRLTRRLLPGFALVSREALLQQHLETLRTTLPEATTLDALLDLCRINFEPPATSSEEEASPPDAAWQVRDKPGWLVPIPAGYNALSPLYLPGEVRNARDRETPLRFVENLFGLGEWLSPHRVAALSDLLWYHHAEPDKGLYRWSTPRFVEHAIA
T1 sequence 3: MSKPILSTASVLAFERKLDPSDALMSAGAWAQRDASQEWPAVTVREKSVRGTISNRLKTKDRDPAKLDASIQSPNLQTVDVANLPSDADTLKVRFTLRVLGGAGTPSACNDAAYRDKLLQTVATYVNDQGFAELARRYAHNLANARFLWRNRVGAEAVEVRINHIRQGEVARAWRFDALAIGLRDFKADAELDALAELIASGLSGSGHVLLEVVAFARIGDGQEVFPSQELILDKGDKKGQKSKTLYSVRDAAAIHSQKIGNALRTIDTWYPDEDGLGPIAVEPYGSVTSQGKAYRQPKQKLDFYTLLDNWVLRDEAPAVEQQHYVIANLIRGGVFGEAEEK
T1 sequence 4: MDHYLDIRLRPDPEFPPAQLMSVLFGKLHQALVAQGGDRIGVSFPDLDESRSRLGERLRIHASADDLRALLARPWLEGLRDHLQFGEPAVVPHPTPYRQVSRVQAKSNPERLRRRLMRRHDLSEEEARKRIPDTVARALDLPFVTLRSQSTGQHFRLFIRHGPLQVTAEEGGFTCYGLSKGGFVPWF

[6] = biological target: Csy complex (Cas8f, Cas5f, Cas7f, Cas6f, crRNA);Cas2/3 (Pseudomonas aeruginosa;Pseudomonas …, UniProt Q02ML9;Q02MM0;Q02MM1;Q02MM2;Q02ML8 1-434;1-327;1-342;1-187;1-1076, |); experiment: EMSA
[7] = biological target: T2, Cas2/3 (UniProt Q02ML8 1-1076); experiment: EMSA
T2 sequence: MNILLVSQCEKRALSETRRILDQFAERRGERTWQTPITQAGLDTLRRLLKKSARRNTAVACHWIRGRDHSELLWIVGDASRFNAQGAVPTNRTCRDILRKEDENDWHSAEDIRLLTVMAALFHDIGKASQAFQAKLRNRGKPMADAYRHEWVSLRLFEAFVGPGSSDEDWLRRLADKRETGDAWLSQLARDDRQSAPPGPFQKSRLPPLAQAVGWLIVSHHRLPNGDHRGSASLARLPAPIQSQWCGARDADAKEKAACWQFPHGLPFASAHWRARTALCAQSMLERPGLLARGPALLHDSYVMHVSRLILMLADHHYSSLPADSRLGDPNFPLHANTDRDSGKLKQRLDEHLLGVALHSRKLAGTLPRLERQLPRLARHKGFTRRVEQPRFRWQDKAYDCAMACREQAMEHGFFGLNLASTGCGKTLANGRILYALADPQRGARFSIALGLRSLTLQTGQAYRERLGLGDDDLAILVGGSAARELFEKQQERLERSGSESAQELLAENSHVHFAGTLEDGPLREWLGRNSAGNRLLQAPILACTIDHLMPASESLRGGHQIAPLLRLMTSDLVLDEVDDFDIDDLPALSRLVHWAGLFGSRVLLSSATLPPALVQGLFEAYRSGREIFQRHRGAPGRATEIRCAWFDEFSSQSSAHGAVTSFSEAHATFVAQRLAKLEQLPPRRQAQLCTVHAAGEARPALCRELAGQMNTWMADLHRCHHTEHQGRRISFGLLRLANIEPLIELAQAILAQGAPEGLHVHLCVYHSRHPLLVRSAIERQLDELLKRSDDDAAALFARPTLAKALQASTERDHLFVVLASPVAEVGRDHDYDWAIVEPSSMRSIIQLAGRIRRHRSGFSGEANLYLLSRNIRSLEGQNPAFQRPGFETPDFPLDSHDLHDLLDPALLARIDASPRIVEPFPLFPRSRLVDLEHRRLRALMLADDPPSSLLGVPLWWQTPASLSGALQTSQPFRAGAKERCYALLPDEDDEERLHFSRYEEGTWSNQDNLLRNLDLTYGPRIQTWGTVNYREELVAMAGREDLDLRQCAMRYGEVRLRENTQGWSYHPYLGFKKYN

AcrIF1 (natural protein)
Kd [1]: 420 nM

AcrIF23 (natural protein)
Kd [2]: 3360 nM

B1: Cas2/3 (enzyme)
chain: MNILLVSQCEKRALSETRRILDQFAERRGERTWQTPITQAGLDTLRRLLKKSARRNTAVACHWIRGRDHSELLWIVGDASRFNAQGAVPTNRTCRDILRKEDENDWHSAEDIRLLTVMAALFHDIGKASQAFQAKLRNRGKPMADAYRHEWVSLRLFEAFVGPGSSDEDWLRRLADKRETGDAWLSQLARDDRQSAPPGPFQKSRLPPLAQAVGWLIVSHHRLPNGDHRGSASLARLPAPIQSQWCGARDADAKEKAACWQFPHGLPFASAHWRARTALCAQSMLERPGLLARGPALLHDSYVMHVSRLILMLADHHYSSLPADSRLGDPNFPLHANTDRDSGKLKQRLDEHLLGVALHSRKLAGTLPRLERQLPRLARHKGFTRRVEQPRFRWQDKAYDCAMACREQAMEHGFFGLNLASTGCGKTLANGRILYALADPQRGARFSIALGLRSLTLQTGQAYRERLGLGDDDLAILVGGSAARELFEKQQERLERSGSESAQELLAENSHVHFAGTLEDGPLREWLGRNSAGNRLLQAPILACTIDHLMPASESLRGGHQIAPLLRLMTSDLVLDEVDDFDIDDLPALSRLVHWAGLFGSRVLLSSATLPPALVQGLFEAYRSGREIFQRHRGAPGRATEIRCAWFDEFSSQSSAHGAVTSFSEAHATFVAQRLAKLEQLPPRRQAQLCTVHAAGEARPALCRELAGQMNTWMADLHRCHHTEHQGRRISFGLLRLANIEPLIELAQAILAQGAPEGLHVHLCVYHSRHPLLVRSAIERQLDELLKRSDDDAAALFARPTLAKALQASTERDHLFVVLASPVAEVGRDHDYDWAIVEPSSMRSIIQLAGRIRRHRSGFSGEANLYLLSRNIRSLEGQNPAFQRPGFETPDFPLDSHDLHDLLDPALLARIDASPRIVEPFPLFPRSRLVDLEHRRLRALMLADDPPSSLLGVPLWWQTPASLSGALQTSQPFRAGAKERCYALLPDEDDEERLHFSRYEEGTWSNQDNLLRNLDLTYGPRIQTWGTVNYREELVAMAGREDLDLRQCAMRYGEVRLRENTQGWSYHPYLGFKKYN
Kd [3]: 1200 nM | Kd [4]: 31 nM

B2: 54 bp target dsDNA (dsDNA)
DNA 1: GGAAGCCATCCAGGTAGACGCGGACATCAAGCCCGCCGTGAAGGTGCAGCTGCT
DNA 2: AGCAGCTGCACCTTCACGGCGGGCTTGATGTCCGCGTCTACCTGGATGGCTTCC
binding result [5]: binds | binding result [6]: binds

B3: 54 nt ssDNA (ssDNA)
DNA: GGAAGCCATCCAGGTAGACGCGGACATCAAGCCCGCCGTGAAGGTGCAGCTGCT
binding result [7]: binds
